Assay results taken from patent publication US9044514B2, “Lipid-peptide-polymer conjugates and nanoparticles thereof” (priority 2010, dated 2015).
Where no end group is shown, it is not given here.

Tests used:
Format in all cases: physicochemical
[1] = Particle size of self-assembled nanoparticles (TEM); details: for Particle Size: particles self-assembled from the conjugate, Table 1
Description: Lyophilized peptide-polymer conjugates were dissolved in phosphate buffer (pH=8) at a concentration of 10 mg/ml (˜1.5 mM). Upon sonication for 30 s, solutions were diluted to 1 mg/ml (0.15 mM) or 0.1 mg/ml in phosphate buffer (pH=8). 5 μl of the diluted peptide solution were applied to a discharged holey carbon-coated copper grid (Ted Pella Cu 400 mesh 01824) for 4 minutes before absorbing off excess solution using filter paper (Whatman filter paper 1). The sample on the grid was negatively stained with a 5 μl 2% (w/v) phosphotungstic acid (adjusted to pH=3.3 with 1 M NaOH) for 2 minutes. Excess stain solution was wicked off. After complete drying, grids were examined by TEM at 120 kV (Philips/FEI Tecnai 12).
Lyophilized peptide powder was dissolved at 1 mg/ml in 25 mM phosphate buffer at pH 7.4. 5 μl of peptide solution was dropped on a discharged holey carbon coated grid (Ted Pella 01824). After removing excess peptide solution, 5 μl of phosphotungstic acid (2 wt %, pH=3.3) solution was then applied for 2 minutes. Samples were dried in air and examined by a FEI Tecnai 12 transmission electron microscope at 120 kV.

[2] = Differential scanning calorimetry (DSC) of micelles; details: heating from 5° C. to 85° C.; solutions incubated at 20° C. for 16 hrs; FIG. 21A
Description: DSC was performed on a VP-MicroCal calorimeter (GE). ˜600 μl of sample and buffer were loaded into two parallel stainless steel cells that were sealed tightly under the pressure of ˜27 psi to prevent water evaporation during the heating cycle. The temperature was increased from 5° to 85° C. at a rate of 1° C./min, with a 15 min equilibration time at 5° C. DSC thermograms were obtained after concentration normalization and baseline correction using the Origin software provided by the MicroCal.

[3] = Circular dichroism (CD), peptide helicity; details: CD spectra, same conditions, FIG. 31
Description: Temperature dependent CD measurements were made on a Jasco J810 spectropolarimeter. CD spectra were collected from 260 to 190 nm at 0.2 nm intervals, a rate of a 100 nm/min, a response time of 4 s, and a bandwidth of 1 nm. Temperature melt curves were measured using ˜200 μM solutions. The ellipticity was monitored at 222 nm as the temperature increased from 5° to 95° C. in 5° C. increments at a rate of 1° C./min, with a 1 min equilibration time at each temperature before the measurement was taken. One hundred percent helicity was estimated using the formula [θ]222=40,000[…][1−(2.5/n)].

| Substance | particle/micelle diameter ([1]; TEM for conjugate 15) | Particle Size [1] | DSC melting temperature / endothermic peak centre [2] | helical content [3] |
| --- | --- | --- | --- | --- |
| Conjugate 8: dC16 lipid, heme-binding 4-helix peptide BB (SEQ ID NO: 2), PEG2K (GGGEIWKLHEEFLCKFEELLKLHEERLKKM; also: dC16 lipid, place not given here, PEG2K, place not given here) | ~12 nm | 10-15 nm |  |  |
| Conjugate 14: dC16 lipid, random coil control peptide SR (SEQ ID NO: 4), PEG2K (EGKAGEKAGAALKCGVQELEKGAEAGEGGW; also: dC16 lipid, place not given here, PEG2K, place not given here) |  | 10-15 nm | 42 °C | less than 5% |
